Source: patent publication US20200121712A1, “AGENT TO BE APPLIED TO OPHTHALMIC DEVICE” (SEIKAGAKU CORPORATION, priority 2015, published 2020)

Tested on: mucin
Experiment: Viscosity increasing effect by interaction with mucin (rotatory viscometer)
Assay type: physicochemical
Conditions: for rate of increase in viscosity (increase in value of viscosity divided by viscosity of sample 3): 1.0 w/v % mixed with 20 w/v % mucin solution (final concentration 0.5 w/v %)
Protocol: In general, with respect to a film of a lubricant formed on a friction surface for reducing friction under the maintained state of fluid friction, the higher the viscosity of the lubricant, the higher the stability of the film of the lubricant. Therefore, the friction reducing effect of the cinnamic acid derivative was evaluated using, as an index, the increase in viscosity due to the interaction of the derivative with mucin contained in the tear fluid.
HA-3APC prepared in Example 1 was dissolved in PBS (pH 7.4) to thereby prepare solutions having concentrations of 1 w/v %, 0.5 w/v % and 0.25 w/v %.
Similarly, HA was dissolved in PBS (pH 7.4) to thereby prepare an HA solution having a concentration of 1 w/v %.
0.4 mL of each of these samples (1 w/v % HA-3APC, 0.5 w/v % HA-3APC, 0.25 w/v % HA-3APC and 1 w/v % HA) having added thereto 0.4 mL of 20 w/v % mucin was sample 1 for measurement.
A sample of 0.4 mL of 20 w/v % mucin having added thereto 0.4 mL of PBS was sample 2 for measurement.
A sample prepared in substantially the same manner as in sample 1 for measurement except that 0.4 mL of PBS was added in place of mucin was sample 3 for measurement.
Each sample for measurement was subjected, immediately after thorough mixing, to measurement of viscosity (shear rate: 100 S^−1, temperature: 35° C.) using a rotatory viscometer (ADVANCED RHEOMETER (TA Instruments)), and increase in value of viscosity was obtained by the following formula.
Increase in value of viscosity=μ1−μ2−μ3
μ1: Viscosity of sample 1 for measurement
μ2: Viscosity of sample 2 for measurement
μ3: Viscosity of sample 3 for measurement
Comparison of the strength of the interaction with mucin was carried out between HA and HA-3APC based on the standardized rate of increase in viscosity obtained by dividing the increase in value of viscosity with the viscosity of sample 3 for measurement. Such a means for standardization is frequently used in comparison of interactions with mucin among different test substances (for example, J. Ocul Pharmacol Ther. 2007.23(6): 541-50).

Substance: HA having covalently bonded thereto a cinnamic acid aminopropyl ester [HA-3APC]
- increase in value of viscosity (strength of interaction with mucin) (0.25, 0.5 and 1.0 w/v % mixed with 20 w/v % mucin (final 0.125, 0.25, 0.5 w/v %), shear rate 100 S^-1, 35° C.): increased depending on the concentration
- rate of increase in viscosity relative to that of HA (1.0 w/v % (final concentration 0.5 w/v %) with 20 w/v % mucin): about 1.5 times
- rate of increase in viscosity (increase in value of viscosity divided by viscosity of sample 3) (shear rate 100 S^-1, 35° C.): 3.65

Substance: hyaluronic acid [HA, reference compound]
- rate of increase in viscosity (increase in value of viscosity divided by viscosity of sample 3) (shear rate 100 S^-1, 35° C.): 2.49
